{
  "source": "paper PMC7954794",
  "about": "“Protein context shapes the specificity of SH3 domain-mediated interactions in vivo” (Nature Communications, 2021)",
  "molecules": {"B1": {"name": "YLR314C_1 (protein, UniProt P32457 2-520, looked up)", "Cell division control protein …": "SLKEEQVSIKQDPEQEERQHDQFNDVQIKQESQDHDGVDSQYTNGTQNDDSERFEAAESDVKVEPGLGMGITSSQSEKGQVLPDQPEIKFIRRQINGYVGFANLPKQWHRRSIKNGFSFNLLCVGPDGIGKTTLMKTLFNNDDIEANLVKDYEEELANDQEEEEGQGEGHENQSQEQRHKVKIKSYESVIEENGVKLNLNVIDTEGFGDFLNNDQKSWDPIIKEIDSRFDQYLDAENKINRHSINDKRIHACLYFIEPTGHYLKPLDLKFMQSVYEKCNLIPVIAKSDILTDEEILSFKKTIMNQLIQSNIELFKPPIYSNDDAENSHLSERLFSSLPYAVIGSNDIVENYSGNQVRGRSYPWGVIEVDNDNHSDFNLLKNLLIKQFMEELKERTSKILYENYRSSKLAKLGIKQDNSVFKEFDPISKQQEEKTLHEAKLAKLEIEMKTVFQQKVSEKEKKLQKSETELFARHKEMKEKLTKQLKALEDKKKQLELSINSASPNVNHSPVPTKKKGFLR"}, "B2": {"name": "YGR037C_1 (protein, UniProt P31787 1-87, looked up)", "Acyl-CoA-binding protein": "MVSQLFEEKAKAVNELPTKPSTDELLELYALYKQATVGDNDKEKPGIFNMKDRYKWEAWENLKGKSQEDAEKEYIALVDQLIAKYSS"}, "B3": {"name": "YKL129C_1 (protein, UniProt P36006 1-1272, looked up)", "Myosin-3": "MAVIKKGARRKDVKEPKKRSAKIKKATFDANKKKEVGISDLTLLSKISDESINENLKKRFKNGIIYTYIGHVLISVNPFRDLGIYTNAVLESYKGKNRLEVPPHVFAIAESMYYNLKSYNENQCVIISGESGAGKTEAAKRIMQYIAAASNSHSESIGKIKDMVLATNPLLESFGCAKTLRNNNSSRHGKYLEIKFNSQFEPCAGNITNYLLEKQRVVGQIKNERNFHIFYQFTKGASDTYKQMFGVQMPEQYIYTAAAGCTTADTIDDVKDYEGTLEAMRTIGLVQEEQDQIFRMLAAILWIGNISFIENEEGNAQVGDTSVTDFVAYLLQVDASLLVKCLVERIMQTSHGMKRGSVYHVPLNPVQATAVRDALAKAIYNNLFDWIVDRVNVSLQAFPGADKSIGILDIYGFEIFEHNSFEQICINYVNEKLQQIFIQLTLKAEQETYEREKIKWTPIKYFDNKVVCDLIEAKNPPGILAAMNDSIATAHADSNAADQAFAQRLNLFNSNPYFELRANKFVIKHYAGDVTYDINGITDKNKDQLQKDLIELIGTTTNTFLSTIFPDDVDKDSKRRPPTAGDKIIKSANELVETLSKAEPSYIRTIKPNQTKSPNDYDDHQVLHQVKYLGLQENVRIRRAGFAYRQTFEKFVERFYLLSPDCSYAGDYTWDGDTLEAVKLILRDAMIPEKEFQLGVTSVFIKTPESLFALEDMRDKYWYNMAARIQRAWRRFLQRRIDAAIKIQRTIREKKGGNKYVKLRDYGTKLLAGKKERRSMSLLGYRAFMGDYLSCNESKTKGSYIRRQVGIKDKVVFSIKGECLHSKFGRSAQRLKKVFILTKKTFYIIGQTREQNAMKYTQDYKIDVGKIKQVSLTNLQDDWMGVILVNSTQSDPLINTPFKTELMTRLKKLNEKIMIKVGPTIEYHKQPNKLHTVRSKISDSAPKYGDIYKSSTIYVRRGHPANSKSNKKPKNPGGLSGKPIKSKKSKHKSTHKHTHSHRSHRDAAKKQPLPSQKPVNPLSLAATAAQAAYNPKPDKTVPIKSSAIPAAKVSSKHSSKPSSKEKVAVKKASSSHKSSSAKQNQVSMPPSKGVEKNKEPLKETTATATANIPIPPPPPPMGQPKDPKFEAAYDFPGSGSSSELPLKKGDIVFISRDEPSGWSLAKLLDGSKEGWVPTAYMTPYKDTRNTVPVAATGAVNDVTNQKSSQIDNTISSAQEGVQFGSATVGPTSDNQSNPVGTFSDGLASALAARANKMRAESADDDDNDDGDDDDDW"}, "B4": {"name": "YLR258W_2 (protein, UniProt P27472 1-705, looked up)", "Glycogen [starch] synthase …": "MSRDLQNHLLFETATEVANRVGGIYSVLKSKAPITVAQYKDHYHLIGPLNKATYQNEVDILDWKKPEAFSDEMRPVQHALQTMESRGVHFVYGRWLIEGAPKVILFDLDSVRGYSNEWKGDLWSLVGIPSPENDFETNDAILLGYTVAWFLGEVAHLDSQHAIVAHFHEWLAGVALPLCRKRRIDVVTIFTTHATLLGRYLCASGSFDFYNCLESVDVDHEAGRFGIYHRYCIERAAAHSADVFTTVSQITAFEAEHLLKRKPDGILPNGLNVIKFQAFHEFQNLHALKKEKINDFVRGHFHGCFDFDLDNTLYFFIAGRYEYKNKGADMFIEALARLNYRLKVSGSKKTVVAFIVMPAKNNSFTVEALKGQAEVRALENTVHEVTTSIGKRIFDHAIRYPHNGLTTELPTDLGELLKSSDKVMLKRRILALRRPEGQLPPIVTHNMVDDANDLILNKIRQVQLFNSPSDRVKMIFHPEFLNANNPILGLDYDEFVRGCHLGVFPSYYEPWGYTPAECTVMGVPSITTNVSGFGAYMEDLIETNQAKDYGIYIVDRRFKAPDESVEQLVDYMEEFVKKTRRQRINQRNRTERLSDLLDWKRMGLEYVKARQLALRRGYPDQFRELVGEELNDSNMDALAGGKKLKVARPLSVPGSPRDLRSNSTVYMTPGDLGTLQEVNNADDYFSLGVNPAADDDDDGPYADDS"}, "B5": {"name": "YCR009C_1 (protein, UniProt P25343 1-265, looked up)", "Reduced viability upon …": "MSWEGFKKAINRAGHSVIIKNVDKTIDKEYDMEERRYKVLQRAGEALQKEAKGFLDSLRAVTASQTTIAEVISNLYDDSKYVAGGGYNVGNYYLQCVQDFDSETVKQLDGPLRETVLDPITKFSTYFKEIEEAIKKRDHKKQDFDAAKAKVRRLVDKPAKDASKLPRAEKELSLAKDIFENLNNQLKTELPQLVSLRVPYFDPSFEALIKIQLRFCTDGYTRLAQIQQYLDQQSRDDYANGLLDTKIEELLGQMTSLDICALGIK"}, "B6": {"name": "YDL146W_1 (protein, UniProt Q12342 1-491, looked up)", "Protein LDB17": "MILDPLSPNIENHTQDEIIEFWEKTESIANIPKENLDESHVNSSLVAYLKFATDSYKVFINTDRDLYRMSLILLESSLFEFKKEFCLSKLQSLLNIDLLEMNMKFIIVYILLCEAKKNVYSLEIMLKFQGFTVFYNTLYTQFAYLSKYGKERTVASKHQYNSNNSSTGTSLDSLDRSLTDIDLGIIDEMKQISTVLMDLLFQIMKYCKCVIANLQIVDDFFVYYMMESMRSDTMDDMFNNAEFKLLLALNEQYMMFAKEYDIENKVYKYLINGSVSRCFTELLLLKFNRASDPPLQIMMCKIIYLILTPRGDYSPMNFFYTNDLRVLIDVLIRELQNISEDEEVLRNTLLRVLIPLLKNTQLSKTHYRKDDLNKLLNYLSTLDNICVDSPALHEHQVTVALSRKCLQQIPWLETPSTPSDGGSSVSSNNTSRNSSIVALGTPDNQNILARKGHLYSNRELDVSAESLTKRKAKAPPPPPPPPPSRKCGTPK"}, "B7": {"name": "YHR016C_1 (protein, UniProt P32793 1-468, looked up)", "Protein YSC84": "MGINNPIPRSLKSETKKAAKVLRSFVKPNQVFGADQVIPPYVLKRAKGLAIITVLKAGFLFSGRAGSGVIVARLKDGTWSAPSAIAMAGAGAGGMVGVELTDFVFILNSEEAVRSFSEFGTITLGGNVSVSAGPLGRSAEAAASASTGGVSAVFAYSKSKGLFAGVSVEGSAILERREANRKFYGDNCTSKMILSGRVKVPPAADPLLRILESRAFNFTRHDHDDNASGDDFYDDGQYSDNTSHYYDDIPDSFDSTDESSTRPNTRSSRRRGMSLGSRSRYDDDYDDDGYGRGRGYGDFDSEDEDYDYGRSPNRNSSRNRGPQIDRGTKPRANTRWEDDLYDRDTEYSRPNHSGRDYDNTRGNRRGYGRERGYSLGHGPTHPSNMSNVDDLSHKMSKTGLGNESTATNSATPTAVALYNFAGEQPGDLAFKKGDVITILKKSDSQNDWWTGRTNGKEGIFPANYVRVS"}, "B8": {"name": "YJR076C_1 (protein, UniProt P32458 2-415, looked up)", "Cell division control protein …": "SGIIDASSALRKRKHLKRGITFTVMIVGQSGSGRSTFINTLCGQQVVDTSTTILLPTDTSTEIDLQLREETVELEDDEGVKIQLNIIDTPGFGDSLDNSPSFEIISDYIRHQYDEILLEESRVRRNPRFKDGRVHCCLYLINPTGHGLKEIDVEFIRQLGSLVNIIPVISKSDSLTRDELKLNKKLIMEDIDRWNLPIYNFPFDEDEISDEDYETNMYLRTLLPFAIIGSNEVYEMGGDVGTIRGRKYPWGILDVEDSSISDFVILRNALLISHLHDLKNYTHEILYERYRTEALSGESVAAESIRPNLTKLNGSSSSSTTTRRNTNPFKQSNNINNDVLNPASDMHGQSTGENNETYMTREEQIRLEEERLKAFEERVQQELLLKRQELLQREKELREIEARLEKEAKIKQEE"}, "B9": {"name": "YLR332W_1 (protein, UniProt P36027 26-376, looked up)", "Cell wall integrity sensor …": "QFFVQSSSSNSSAVSTARSSVSRVSSSSSILSSSMVSSSSADSSSLTSSTSSRSLVSHTSSSTSIASISFTSFSFSSDSSTSSSSSASSDSSSSSSFSISSTSATSESSTSSTQTSTSSSSSLSSTPSSSSSPSTITSAPSTSSTPSTTAYNQGSTITSIINGKTILSNHYTTVTYTPSATADSSNKSKSSGLSKKNRNIVIGCVVGIGVPLILVILALIYMFCIQSSRTDFIDSDGKVVTAYRANKFTKWWYMLLGKKVSDEYHSDSPLGGSASSAGGLDLDEADDVMEQSSLFDVRIRDSDSVLPNANTADHNNTNSGGEPINSSVASNDIIEEKFYDEQGNELSPRNY"}},
  "tested_on": "PPIs identified as affected by the SH3 domain deletions",
  "experiment": "Liquid DHFR-PCA low-throughput validation of PPIs affected by SH3 deletion (Fig. S1D-E)",
  "type": "cell-based, Saccharomyces cerevisiae",
  "settings": "label = prey, liquid DHFR-PCA, prey _1 = lost, _2 = gained in screen",
  "method_in_brief": "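Yeast diploids from DHFR-PCA mating grown 48 h in synthetic complete MSG medium pH 6.0 with NAT and HPH, normalized to 1 OD and diluted to 0.1 OD in liquid PCA selection medium. Growth followed by OD every 15 min for 72 h at 30 °C.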",
  "data": [
    {"molecule": "B1", "values": [
      {"measurement": "Ratio (Deletedscore / WTscore)", "setting": "bait BEM1-2", "result": 0.9934},
      {"measurement": "Ratio (Deletedscore / WTscore)", "setting": "bait NBP2", "result": 0.9977}
    ]},
    {"molecule": "B2", "values": [
      {"measurement": "Ratio (Deletedscore / WTscore)", "setting": "bait LSB1", "result": 1.041}
    ]},
    {"molecule": "B3", "values": [
      {"measurement": "Ratio (Deletedscore / WTscore)", "setting": "bait BZZ1-1", "result": 0.69},
      {"measurement": "Ratio (Deletedscore / WTscore)", "setting": "bait PIN3", "result": 0.7986}
    ]},
    {"molecule": "B4", "values": [
      {"measurement": "Ratio (Deletedscore / WTscore)", "setting": "bait ABP1", "result": 1.221}
    ]},
    {"molecule": "B5", "values": [
      {"measurement": "Ratio (Deletedscore / WTscore)", "setting": "bait LSB1", "result": 0.9386},
      {"measurement": "Ratio (Deletedscore / WTscore)", "setting": "bait LSB3", "result": 0.7612},
      {"measurement": "Ratio (Deletedscore / WTscore)", "setting": "bait MYO3", "result": 0.6894},
      {"measurement": "Ratio (Deletedscore / WTscore)", "setting": "bait MYO5", "result": 0.8072}
    ]},
    {"molecule": "B6", "values": [
      {"measurement": "Ratio (Deletedscore / WTscore)", "setting": "bait BZZ1-1", "result": 0.5572},
      {"measurement": "Ratio (Deletedscore / WTscore)", "setting": "bait BZZ1-2", "result": 0.7122},
      {"measurement": "Ratio (Deletedscore / WTscore)", "setting": "bait LSB3", "result": 0.6902}
    ]},
    {"molecule": "B7", "values": [
      {"measurement": "Ratio (Deletedscore / WTscore)", "setting": "bait HOF1", "result": 0.9486},
      {"measurement": "Ratio (Deletedscore / WTscore)", "setting": "bait MYO5", "result": 0.6586},
      {"measurement": "Ratio (Deletedscore / WTscore)", "setting": "bait RVS167", "result": 0.5834}
    ]},
    {"molecule": "B8", "values": [
      {"measurement": "Ratio (Deletedscore / WTscore)", "setting": "bait BEM1-2", "result": 0.6782},
      {"measurement": "Ratio (Deletedscore / WTscore)", "setting": "bait MYO3", "result": 0.8182},
      {"measurement": "Ratio (Deletedscore / WTscore)", "setting": "bait MYO5", "result": 0.9436},
      {"measurement": "Ratio (Deletedscore / WTscore)", "setting": "bait RVS167", "result": 1.148}
    ]},
    {"molecule": "B9", "values": [
      {"measurement": "Ratio (Deletedscore / WTscore)", "setting": "bait CDC25", "result": 0.4625},
      {"measurement": "Ratio (Deletedscore / WTscore)", "setting": "bait NBP2", "result": 0.9277}
    ]}
  ]
}
